# Data: the supplement of paper PMC7125110
# ± gives the standard error. This sample holds only a part of the variants without activity.
# B1: glmS ribozyme (parent)
# chain: AUAAAAGCGCCAGAACUACAGAAAUGUAGUUGACGAGGAGGAGGUUUAUCGAAUUUUCGGCGGAUGCCUCCAAA
# Variants of: B1
# Experiment: self-cleavage kobs at 10000 uM GlcN6P; higher = faster cleavage; RNA array
# Details: with glucosamine-6-phosphate
# Procedure, shortened: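 kcat and KM were obtained from weighted Michaelis–Menten fits across concentrations of kobs values. Those came from one- or two-exponential decay fits to per-tile medians normalised to baseline and to non-cleaving reference variants. The variants were barcoded ribozymes transcribed in situ by E. coli RNA polymerase on sequenced MiSeq chips and tracked through a hybridised Cy3 probe at 37 °C, with 40 μM to 10 mM glucosamine-6-phosphate in HEPES/KCl/Mg(OAc)2 buffer flowed in.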
row,Variant,self-cleavage kobs at 10000 uM GlcN6P [s⁻¹]
1,C11U U69C,0.000482 ± 9.2e-05
2,A33C G35C U47A,< 1e-05
3,A15U G44U,3.08e-05 ± 1.4e-05
4,A42U U56C,5.38e-05 ± 1.2e-05
5,G29C U46A,7.43e-05 ± 1.7e-05
6,C34A A64G U69C,< 1e-05
7,A39G U45C C67A,0.00692 ± 0.0024
8,A6G U55G C70U,8.99e-05 ± 1.5e-05
9,A14G G40C U49G C50G G51C,< 1e-05
10,G29C C34U G38A C71U,< 1e-05
11,G32A U47G A52G C61G C71G,6.89e-05 ± 2.1e-05
12,G13C U30C U47A,8.1e-05 ± 2.1e-05
13,A14C A42C U46G A52G,< 1e-05
14,A6U A39C G43U G51U C70G C71A,< 1e-05
15,A36C G38C A64C,< 1e-05
16,C8A C16U U31C G37U A39U A42U A48U,< 1e-05
17,U46A G62C C71U,< 1e-05
18,A33U A53U G59U,< 1e-05
19,C11A G40A U55G C71G,< 1e-05
20,C8U U30G A39G G43U,< 1e-05
21,A6C C10G U31A G43U C70U,< 1e-05
22,G41C U56C,3.26e-05 ± 8.9e-06
23,A33U G44A G63U,< 1e-05
24,A14C A33G C58G U65C,< 1e-05
25,C8U C16A A39C C58U A64G C67G,< 1e-05
26,C50U G59C A64G C71U,< 1e-05

row,Variant,self-cleavage kobs at 10000 uM GlcN6P [s⁻¹]
1,C16G G32C C70U A73C,0.000111 ± 1.7e-05
2,A1U U2G A3G C8G C34G,< 1e-05
3,U30G U31G U46C U65G,5.94e-05 ± 2.6e-05
4,G35U U47A C61U,< 1e-05
5,U45G U46C U54G,0.00762 ± 0.0023
6,C11U A12G U45G C67A,5.25e-05 ± 1.6e-05
7,A12U G40U U54A,0.000861 ± 0.00024
8,A15C G35C C50G,4.99e-05 ± 1.2e-05
9,G7U C11U C16A U45A G51A G60C,< 1e-05
10,G9A A33U U69C,< 1e-05
11,A33U G35C G62U C67U,< 1e-05
12,G7A A48G U65A,< 1e-05
13,G40C G41A C50U,< 1e-05
14,A14U C16G G32A U56G,0.000337 ± 5e-05
15,G51U U54C G66U,< 1e-05
16,A6U G7U G9C,< 1e-05
17,G13A G51U G60U,< 1e-05
18,A14C G41C,3.51e-05 ± 1.1e-05
19,A36G G40U C68A,< 1e-05
20,C16A C50A U65G,< 1e-05
21,A15U C16G G32C,8.84e-05 ± 2.6e-05
22,A14U G35C G41A U46A,< 1e-05
23,C10G G40U U55A C61U,< 1e-05
24,C16U G40C A53C C71U,0.000561 ± 0.00013
25,C8U U57A U69G,0.000575 ± 0.00016
26,C8U G51U U69A,0.000401 ± 0.00014

row,Variant,self-cleavage kobs at 10000 uM GlcN6P [s⁻¹]
1,A12C G13C G32A A39U,5.7e-05 ± 1e-05
2,G9C C11U C61G,0.000219 ± 4.5e-05
3,A14U U30G U55G C70A,3.35e-05 ± 1.5e-05
4,A42G U55A C68G,7.44e-05 ± 2e-05
5,U30G U49A C68A,< 1e-05
6,A39G U54A G62U G66A,< 1e-05
7,G43U U65G C68U,0.0019 ± 0.00044
8,G7A U30A A39C A48C,< 1e-05
9,U31G G43C U45G,0.000273 ± 8.2e-05
10,C11A U31C U45A,4.34e-05 ± 1.5e-05
11,A15C C16G U56A C61G,< 1e-05
12,C16A G35U G60U,< 1e-05
13,G35C G59A C61U,< 1e-05
14,A39U A42G U46C,0.00379 ± 0.00069
15,A42C U49C U57A,< 1e-05
16,C10A C11A G44A,< 1e-05
17,G13C A42C C50U,< 1e-05
18,A6U A53C,5.75e-05 ± 9.2e-06
19,C10U A39G A42U U49A A53C U69G,< 1e-05
20,A12U C16U A42G,0.0803 ± 0.038
21,A6C G7C G35A C68G,< 1e-05
22,A12G C16A G29U,0.000458 ± 9.3e-05
23,C50G G60A C71G,0.000124 ± 3.5e-05
24,G7A A39U G43U,< 1e-05
25,G37C U45A U54C G63C,< 1e-05
26,G32A A52G C70A,5.69e-05 ± 2.3e-05

row,Variant,self-cleavage kobs at 10000 uM GlcN6P [s⁻¹]
1,G29A G32U C70A,4.82e-05 ± 1.8e-05
2,C8U A42U C50U,< 1e-05
3,U49A C70A,< 1e-05
4,A15U G41U A48U U55C,< 1e-05
5,G7U G29C A48G C50G C71A,0.00097 ± 0.00047
6,G9U A15U A52U,< 1e-05
7,G13A C50G G66U,6.48e-05 ± 2.1e-05
8,G13C U65A,< 1e-05
9,A52G U57G U65C,6.98e-05 ± 1.2e-05
10,G13C G40A,2.64e-05 ± 9.8e-06
11,U30G U45A C71G,0.000315 ± 5.9e-05
12,A64G U69C,0.000688 ± 0.00018
13,A12G A14C A39C G44U G51U,< 1e-05
14,A42U A48U U65C,< 1e-05
15,A15U G29C U47G U54A,0.000122 ± 2.4e-05
16,G59U G62A A64G,< 1e-05
17,U49C G51U C70G,< 1e-05
18,U31G G40U C67A,6.16e-05 ± 1.3e-05
19,A14G G29U G40C,0.00075 ± 0.00013
20,A64U G66C,4.03e-05 ± 1.2e-05
21,G13U U30A G43C,< 1e-05
22,A14U C34U C68G,7.15e-05 ± 2.1e-05
23,A6C G59A G66A,< 1e-05
24,G43C C68U C70G C71U,< 1e-05
25,U45C C50G U54A,< 1e-05
26,C50U A64C C71A,< 1e-05

row,Variant,self-cleavage kobs at 10000 uM GlcN6P [s⁻¹]
1,A33C U46G A52U,< 1e-05
2,G59C G63C,< 1e-05
3,G29A A64G C67G,5.14e-05 ± 2e-05
4,C8U A12C A15U G38U A64U,< 1e-05
5,U31C G41U A53G,0.000299 ± 8.8e-05
6,C16A A64G C67G C70U,< 1e-05
7,C34A C58G C68G,0.000608 ± 0.00016
8,A6G U30A C34U C67G C71G,7.35e-05 ± 3.3e-05
9,U31A C34U G44A,< 1e-05
10,G35A G38U A53C C70U,< 1e-05
11,G35A U54G G62C,< 1e-05
12,A18C G38A C50U C58U G59U,< 1e-05
13,A15U A33C C58A C68A,< 1e-05
14,G32U G40U C70U,5.9e-05 ± 1.3e-05
15,A14G U30G U47C,0.00168 ± 0.00041
16,C10G G40U U46C C71U,< 1e-05
17,G7A C34U A42C,< 1e-05
18,G7U A15C A36G,< 1e-05
19,C16G G37C G62A,< 1e-05
20,C8A A39U U47G,< 1e-05
21,U31C U45A A52G C68U,0.000129 ± 3.8e-05
22,C16A G38A A48C,< 1e-05
23,G37U G38A C67U,< 1e-05
24,A36G A64C U65G,< 1e-05
25,C11G G35C G63U C67A,< 1e-05
26,A33U G40A,4.3e-05 ± 5.8e-06

row,Variant,self-cleavage kobs at 10000 uM GlcN6P [s⁻¹]
1,G9A A53G,3.28e-05 ± 1.3e-05
2,A33G G35U A39G A53U G62C,< 1e-05
3,C8G U30A A39G G41C U54G C67A,< 1e-05
4,C8G A15C G40A G41U C50U C70G,< 1e-05
5,A14U C19U C58G,9.16e-05 ± 2.1e-05
6,G9U G43U A53C,< 1e-05
7,C10A G37C G51A,< 1e-05
8,A6C G9C C50A C58A A64U C70G,< 1e-05
9,C11U A15G C16U C50G U54G U56A U69C,< 1e-05
10,G38A U57C A64U,< 1e-05
11,G9U U30C G32A,< 1e-05
12,G9C C34U,< 1e-05
13,G29C C61G C67G,< 1e-05
14,G7C G29A,< 1e-05
15,G38A U46G U57G C58A,< 1e-05
16,C11U A64U C67G,< 1e-05
17,A15G U65C C67U,7.42e-05 ± 1.7e-05
18,A12G A42G U47C,0.000197 ± 3.9e-05
19,A6G G9U G35U G38A G40A,< 1e-05
20,C8U G29A U31G,< 1e-05
21,A12U U47G A52U U69G,6.72e-05 ± 3e-05
22,U31G U47C U54A,0.00049 ± 8.9e-05
23,A14G U30A G41U C68A,< 1e-05
24,G29C C34G G40C C70A,< 1e-05
